Test results published in US20180280423A1 (NATIONAL YANG MING UNIVERSITY, published 2018).

Target: T1, epidermal growth factor receptor (EGFR) (human, UniProt P00533 25-1210)
T1 construct: whole, on cells; Endogenous EGFR in human HNSCC cells, or wild-type pHA-EGFR where transfected; also called ErbB1; total EGFR
Assay: interaction of transfected LTβ with EGFR (method not named; immunoprecipitation in Methods)
Method: For immunoprecipitation, the lysates were mixed with an equal amount of Co-IP buffer. The primary antibody or IgG was added to the lysates, and the reactions were incubated and then blocked with protein A beads overnight. The beads were collected and washed gently prior to immunoblotting. ImageJ software was used for densitometric measurements of the western blots.

B1: Ectopic LTβ (ligand)
chain: MGALGLEGRGGRLQGRGSLLLAVAGATSLVTLLLAVPITVLAVLALVPQDQGGLVTETADPGAQAQQGLGFQKLPEEEPETDLSPGLPAAHLIGAPLKGQGLGWETTKEQAFLTSGTQFSDAEGLALPQDGLYYLYCLVGYRGRAPPGGGDPQGRSVTLRSSLYRAGGAYGPGTPELLLEGAETVTPVLDPARRQGYGPLWYTSVGFGGLVQLRRGERVYVNISHPDMVDFARGKTFFGAVMVG
notes: also called pFLAG-LTB product; transfected LTβ; not shown: FLAG tag from the pFLAG-CMV2 vector
B1: binds.
